Results taken from publication PMC4512625, “Critical role of the SPAK protein kinase CCT domain in controlling blood pressure” (Human Molecular Genetics, 2015).

Molecular target: T1, Lumio-Green-labelled RFXV-motif-possessing peptide derived from WNK4 (EP4543) (not fully specified; Lumio Green fluorophore conjugated to the N-terminal linker CCPGCCGGGG)
T1 construct: N-terminal linker required for conjugating to the Lumio Green fluorophore; stretch of WNK4 with the RFQV motif; also called WNK peptide; RFXV peptide; source: synthetic peptide (GL Biochem)
T1 peptide: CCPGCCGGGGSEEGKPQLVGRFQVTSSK
Test: fluorescence polarisation; SPAK protein titrated against 10 nM Lumio-Green-labelled peptide; 25°C; 50 mM Tris-HCl pH 7.5, 150 mM NaCl, 2 mM DTT; one-site-specific binding model
Conditions: both partners purified

B1: human SPAK 452-547 with L491A (domain or fragment)
chain: not shown
notes: SPAK, human, residues 452-547 (end), the CCT domain, L491A; pGEX-6P-1 construct; GST-SPAK proteins were eluted with 20 mM glutathione and no cleavage of GST is described, so GST was probably still on the protein; also called SPAK CCT domain L491A (equivalent to L502 in mouse); source: E. coli BL21, purified (glutathione-Sepharose)
For B1, the “fold reduction of binding against wild-type SPAK 452-547” value was ~100 fold.
